B1: human βTrCP protein (h-βTrCP) (other)
chain: MDPAEAVLQEKALKFMNSSEREDCNNGEPPRKIIPEKNSLRQTYNSCARLCLNQETVCLASTAMKTENCVAKTKLANGTSSMIVPKQRKLSASYEKEKELCVKYFEQWSESDQVEFVEHLISQMCHYQHGHINSYLKPMLQRDFITALPARGLDHIAENILSYLDAKSLCAAELVCKEWYRVTSDGMLWKKLIERMVRTDSLWRGLAERRGWGQYLFKNKPPDGNAPPNSFYRALYPKIIQDIETIESNWRCGRHSLQRIHCRSETSKGVYCLQYDDQKIVSGLRDNTIKIWDKNTLECKRILTGHTGSVLCLQYDERVIITGSSDSTVRVWDVNTGEMLNTLIHHCEAVLHLRFNNGMMVTCSKDRSIAVWDMASPTDITLRRVLVGHRAAVNVVDFDDKYIVSASGDRTIKVWNTSTCEFVRTLNGHKRGIACLQYRDRLVVSGSSDNTIRLWDIECGACLRVLEGHEELVRCIRFDNKRIVSGAYDGKIKVWDLVAALDPRAPAGTLCLRTLVEHSGRVFRLQFDEFQIVSSSHDDTILIWDFLNDPAAQAEPPRSPSRTYTYISR
notes: 569 amino acids; also called whole h-βTrCP protein
B2: IκBα S32-36A (IκBα mutant at serines S32 and S36 so that there is no phosphorylation) (other, UniProt P25963 1-317, looked up)
chain: MFQAAERPQEWAMEGPRDGLKKERLLDDRHDAGLDAMKDEEYEQMVKELQEIRLEPQEVPRGSEPWKQQLTEDGDSFLHLAIIHEEKALTMEVIRQVKGDLAFLNFQNNLQQTPLHLAVITNQPEIAEALLGAGCDPELRDFRGNTPLHLACEQGCLASVGVLTQSCTTPHLHSILKATNYNGHTCLHLASIHGYLGIVELLVSLGADVNAQEPCNGRTALHLAVDLQNPDLVSLLLKCGADVNRVTYQGYSPYQLTWGRPSTRIQQQLGQLTLENLQMLPESEDEESYDTESEFTEFTEDELPYDDCVFGGQRLTL
notes: Two-hybrid hybrid; also called IκBα S32-36AA
B3: βCat1→130 S33-37AA (oncogenic β-catenin protein mutated on serine residues S33 and S37 so that there is no phosphorylation) (other, UniProt P35222 1-130, looked up)
chain: MATQADLMELDMAMEPDRKAAVSHWQQQSYLDAGIHAGATTTAPSLSGKGNPEEEDVDTSQVLYEWEQGFSQSFTQEQVADIDGQYAMTRAQRVRAAMFPETLDEGMQIPSTQFDAAHPTNVQRLAEPSQ
notes: range 1-130; also called mutated β-catenin
B4: cytoplasmic region of CD4 (CD4c) (receptor, UniProt P01730 419-458, looked up)
chain: CVRCRHRRRQAERMSQIKRLLSEKKTCQCPHRFQKTCSPI
notes: domain: cytoplasmic region; Two-hybrid fusion; also called CD4 cytoplasmic domain

Assays:
[1] = biological target: endogenous IκBα protein of 293 or Hela cells, phosphorylated form (human) (UniProt P25963); experiment: cell-based or functional assay
[2] = biological target: T1, βCat (whole normal β-catenin protein) (UniProt P35222 1-781); experiment: yeast two-hybrid, FIG. 10
T1 construct: Two-hybrid hybrid; also called whole β-catenin protein
T1 sequence (looked up): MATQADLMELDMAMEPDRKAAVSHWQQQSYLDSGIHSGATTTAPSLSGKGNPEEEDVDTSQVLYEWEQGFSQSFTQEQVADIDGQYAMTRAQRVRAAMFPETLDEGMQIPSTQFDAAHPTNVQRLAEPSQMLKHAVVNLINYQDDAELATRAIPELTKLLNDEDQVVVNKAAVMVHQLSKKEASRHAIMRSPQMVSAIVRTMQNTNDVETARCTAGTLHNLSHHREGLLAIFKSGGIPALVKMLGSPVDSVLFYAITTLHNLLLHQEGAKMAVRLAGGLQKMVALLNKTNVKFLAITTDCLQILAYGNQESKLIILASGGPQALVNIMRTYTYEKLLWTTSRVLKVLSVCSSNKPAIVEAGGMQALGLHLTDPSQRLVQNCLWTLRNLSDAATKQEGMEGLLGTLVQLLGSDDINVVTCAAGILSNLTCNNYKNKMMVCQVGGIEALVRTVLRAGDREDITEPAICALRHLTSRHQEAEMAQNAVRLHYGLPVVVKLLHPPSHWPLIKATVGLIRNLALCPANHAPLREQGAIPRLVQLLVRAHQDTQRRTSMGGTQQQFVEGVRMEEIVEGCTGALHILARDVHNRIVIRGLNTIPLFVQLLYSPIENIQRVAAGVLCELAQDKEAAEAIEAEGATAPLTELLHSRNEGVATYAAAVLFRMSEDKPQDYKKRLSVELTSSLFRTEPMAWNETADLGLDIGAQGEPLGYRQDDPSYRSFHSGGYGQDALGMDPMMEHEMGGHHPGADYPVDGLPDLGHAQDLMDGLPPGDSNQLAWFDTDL

[3] = biological target: B1; experiment: yeast two-hybrid
[4] = biological target: T2, KIAA 0696 (βTrCP2), human βTrCP protein isolated by ISHIKAWA et al. (human, UniProt Q9UKB1 1-542, limits assumed); experiment: yeast two-hybrid
T2 construct: Two-hybrid hybrid; also called βTCP2; KIA 696
T2 sequence (looked up): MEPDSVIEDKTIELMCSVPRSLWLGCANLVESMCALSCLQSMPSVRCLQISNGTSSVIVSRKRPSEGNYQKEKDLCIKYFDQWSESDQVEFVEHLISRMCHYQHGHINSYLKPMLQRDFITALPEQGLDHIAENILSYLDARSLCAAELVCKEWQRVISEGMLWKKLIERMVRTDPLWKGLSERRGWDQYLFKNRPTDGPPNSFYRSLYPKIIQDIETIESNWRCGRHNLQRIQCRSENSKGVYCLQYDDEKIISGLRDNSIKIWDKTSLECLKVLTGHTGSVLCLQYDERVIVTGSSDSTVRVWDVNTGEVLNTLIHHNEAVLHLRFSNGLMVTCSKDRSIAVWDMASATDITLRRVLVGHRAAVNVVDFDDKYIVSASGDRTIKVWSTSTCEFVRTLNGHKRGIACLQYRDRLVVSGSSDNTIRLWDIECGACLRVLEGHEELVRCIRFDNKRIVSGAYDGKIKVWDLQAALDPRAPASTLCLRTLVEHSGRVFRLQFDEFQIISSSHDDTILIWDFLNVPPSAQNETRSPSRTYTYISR

human Skp1p protein = human Skp1p protein (human, UniProt P63208 1-163); experiment: yeast two-hybrid (strain L40)
human Skp1p protein, sequence (P63208 whole entry): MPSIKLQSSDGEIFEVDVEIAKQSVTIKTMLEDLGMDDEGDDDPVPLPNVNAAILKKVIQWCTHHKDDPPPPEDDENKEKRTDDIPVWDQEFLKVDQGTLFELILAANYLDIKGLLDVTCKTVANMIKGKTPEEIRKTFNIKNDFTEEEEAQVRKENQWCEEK

[5] = biological target: B1; experiment: yeast two-hybrid (His3 and LacZ reporters)

“h-βTrCPΔF fragment (deleted residues: 32 to 179) (from UniProt Q9Y297 1-605)” was tested, and the fold decrease in transcription activation induced by TNFα (NFκB-dependent luciferase reporter, FIG. 7) [1] was 20 fold.

B1: binds [2].

B2: no binding [3].

B3: no binding [3]; no binding [4].

B4: no binding (human Skp1p protein); no binding [5].

Reference: patent US6730486 (INSTITUT NATIONAL DE LA SANTE ET DE LA RECHERCHE MEDICALE, dated 2004)
